This test deals with human GIP receptor (human) (UniProt P48546). In words: cell-based or functional assay.
Chain of human GIP receptor (human) (P48546 22-466): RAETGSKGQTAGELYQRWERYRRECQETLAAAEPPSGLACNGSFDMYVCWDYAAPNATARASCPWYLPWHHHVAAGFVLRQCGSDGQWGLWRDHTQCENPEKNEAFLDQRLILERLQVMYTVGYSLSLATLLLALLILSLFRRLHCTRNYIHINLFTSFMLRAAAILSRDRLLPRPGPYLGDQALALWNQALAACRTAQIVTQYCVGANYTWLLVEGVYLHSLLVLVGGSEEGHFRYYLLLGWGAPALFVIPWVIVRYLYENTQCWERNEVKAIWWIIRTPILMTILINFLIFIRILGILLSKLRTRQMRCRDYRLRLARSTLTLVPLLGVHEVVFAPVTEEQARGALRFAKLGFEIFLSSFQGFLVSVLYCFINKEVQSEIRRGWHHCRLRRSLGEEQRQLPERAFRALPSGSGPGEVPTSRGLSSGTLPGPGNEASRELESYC

Regarding “human GIP (1-42)NH2 (from UniProt P09681 52-93) (ligand)”, the cAMP EC50 (0.1% casein) stood at 0.154 nM; the cAMP EC50 (FBS and BSA present) worked out at 0.133 nM.

The values are drawn from patent US20250313605A1.
